Results taken from patent US20180221513A1, “CONTRAST-AGENT-LABELED PEPTIDE AMPHIPHILE NANOFIBERS” (Northwestern University, priority 2015, published 2018).
peptoid linker = not defined here

Key:
[1] = ICP-MS of leg muscles for Gd(III) retention after day 4; type: in vivo, mice; conditions: after four days; intramuscular PA gel 1 wt %, 10 mol % Gd(III)-PA
Description: To measure degradation in vivo, six wild-type mice received approximately 4 μL injections of PA gels at 1 wt % loaded with 10 mol % Gd(III)-PA relative to C16V3A3E3-NH2. The injections were applied with a modified syringe pump designed to inject while withdrawing the needle to produce a gelled track of PA in situ. Injection volume varied because track length varied slightly with mouse size and small variations in each injection geometry. The tract geometry was chosen to give accurate T1 determinations because imaging slice thickness could be greater without volume averaging effects. A total of five legs were injected with PA1, four legs with PA3, and three with 100% C16V3A3E3-NH2 as a control. Mice were imaged at day 0 immediately after injections and again at day 4. The Gd(III)-PA was clearly visible in all cases (FIG. 5). […]
For Gd(III) analysis, mouse leg muscles were excised and digested in 1 mL of nitric acid per gram of tissue in Teflon tubes. […] Digest was diluted and measured using the same conditions as above.
All measurements used a Thermo X series II ICP-MS (Thermo Fisher Scientific, Waltham, Mass., USA) operating with an ESI SC-2 autosampler (Omaha, Nebr., USA). […] The two most common isotopes of Gd, 157Gd and 158Gd, were measured. 115In and 165Ho were measured as internal standards.

[2] = T1 and T2 relaxivity (r1, r2) at 1.41 T, Bruker Minispect relaxometer; type: physicochemical; conditions: 1.41 tesla
Description: Using a Bruker Minispect relaxometer operating at 1.41 T, T1 and T2 relaxivity values (r1 and r2) were determined for each agent (Table 1). […] Thermal annealing followed by addition of CaCl2 caused complex changes in the observed agent relaxivity (Table 1). […] This increased accessibility is consistent with a more extended molecular structure as indicated by SAXS.
All concentrations used in relaxivity determination were obtained using ICP-MS. Samples were digested using ACS reagent grade nitric acid (70%) for a least 2 hours at 70° C. Samples were diluted in filtered, deionized water. A standard containing the elements Bi, Ho, In, Li, Sc, Tb, and Y was added to a final concentration of 5 ng/mL (Inorganic Ventures, Christiansburg, Va., USA). Final nitric acid concentration was 3%. The instrument was calibrated using a serial dilution of Gd(III) standards (Inorganic Ventures, Christiansburg, Va., USA) with nitric acid and internal standard concentrations identical to the samples. Calibration was conducted with 1.000, 5.000, 10.00, 20.00, 50.00, 100.0, and 200.0 ng/mL Gd(III) standards.
T1 Measurements were performed at 1.41 T with a Bruker Minispect mq60 magnet, using an inversion recovery sequence. T2 measurements were acquired using a Carr-Purcell-Meiboom-Gill (CPMG) pulse sequence. PAs were weighed out and dissolved in Millipore water to form 1 mg/mL solutions, and then these solutions were serial diluted to 0.5, 0.25, 0.125, 0.05, and 0.01 mg/mL concentrations. For each concentration, T1 and T2 were measured. These solution concentrations were then measured using ICP-MS for relaxivity determination. Samples were lyophilized and resuspended in 50 mM Tris and 150 mM NaCl buffer. These were then adjusted using small volumes of 0.1 M NaOH to reach pH 7.4. T1 and ICP-MS measurements were then taken of these solutions. The relaxometer tubes were heated at 80° C. for 30 min in a water bath. The bath was allowed to come to room temperature over several hours. T1 times were measured. Finally, 100 μL of 20 mM CaCl2 solution was added to each tube. The tubes were vortex-mixed and allowed to stand for 20 minutes. ICP-MS and T1 measurements were conducted once more.

[3] = 1H NMRD profiles, fits with modified Florence approach; type: physicochemical; conditions: fits at 37° C.
Description: ^1NMRD profiles were collected with a Stelar Spinmaster FFC-2000-1T fast field cycling relaxometer in the 0.01-40 MHz proton Larmor frequency range, at 293 and 310 K. Longitudinal relaxation rates were measured with an error smaller than 1%. Proton relaxivities were calculated by subtracting the diamagnetic contribution of the peptide nanofibers in the absence of Gd(III) from the relaxation rates of the paramagnetic samples, and normalizing to 1 mM Gd(III) concentration. The profiles were analyzed using the Freed model for outer-sphere relaxation (refs. 48, 49; incorporated by reference in their entireties) and the modified Florence NMRD program for the inner-sphere relaxation (refs. 45, 46, 50; incorporated by reference in their entireties). The effect of static ZFS on nuclear relaxation is considered along with transient ZFS, where modulation is responsible for electron relaxation, provided molecular reorientation time is much longer than electron relaxation time (refs 51,52; incorporated by reference in their entireties). In order to establish which parameter was dominant in relaxivity changes, NMRD profiles of each PA were measured. NMRD profiles for all four PAs at 25° and 37° C. are shown in FIG. 3 with parameter fits obtained using the “modified Florence” approach (refs. 44-46;1 incorporated by reference in their entireties). In the fits, a Lipari-Szabo order parameter S^2 was included to consider the effect of local motions which may superimpose to the global motion of the nanostructures. A smaller S^2 value indicates a less restricted local mobility (e.g., a more flexible linkage between fiber and macrocycle). […] The NMRD fits show τm is primarily responsible for the variation in relaxivity observed upon annealing and Ca2+ cross-linking (Table 2). It is contemplated that annealing and calcium addition change macrocycle presentation on the fiber surface, extending them from the structure with increased peptide packing density and facilitating faster water exchange. […] The ^1H NMRD profiles were analyzed assuming one water molecule regularly coordinated to the Gd(III) ion in the presence of freely diffusing outer-sphere water. The contribution of the coordinated water protons […]) to the relaxation of bulk water protons (R1) largely depends on the τM of coordinated water if τ[…], as expected for Gd(HP-DO3A), according to the following relationship: R1=fM(1/[…]+τM)^-1+Ros where f^M is the mole fraction of ligand nuclei in bound positions and Ros is the outer-sphere contribution. […] is calculated by considering the simultaneous presence of both static (D) and transient (Δt) ZFS, as needed for Gd(III) complexes, through the “modified Florence” NMRD program, 4-6 assuming slow rotation, i.e. the molecular tumbling time τR is much longer than the electron relaxation time Tle. The PA fiber's micron-scale size assures that TR could be fixed to a large, constant value (≥100 ns) in the calculation of the relaxation profile. The ^1H NMRD profiles of PA 1 were repeated at both temperatures using the same Δt value of 0.0142 cm-1, D=0.046 cm-1, θ=42° (angle between the z-axis of the ZFS tensor and the metal-water direction) and a correlation time for electron relaxation τV=24 ps. A distance of closest approach of diffusing water molecules (d) of 7-10 Angstroms should be set, i.e. somewhat larger than usually found in isolated Gd(III) chelates (3.5-4 Å). […]

[4] = Addition of CaCl2 to annealed solution

Molecule	Gd(III) retention: remained in the mouse leg (ICP-MS) [1]	r1 (T1 relaxivity) [2, 4]	r2 (T2 relaxivity) [2, 4]	r1 (T1 relaxivity) ([2]; After Thermal Annealing)	r2 (T2 relaxivity) ([2]; After Thermal Annealing)	r1 (T1 relaxivity) ([2]; H2O)	r2 (T2 relaxivity) ([2]; H2O)	r1 (T1 relaxivity) ([2]; Tris Buffer (pH 7.4))	r2 (T2 relaxivity) ([2]; Tris Buffer (pH 7.4))	τm (water exchange lifetime), best-fit value ([3]; Annealed)	τm (water exchange lifetime), best-fit value ([3]; Buffered)	τm (water exchange lifetime), best-fit value ([3]; Ca^2+)	S^2 (Lipari-Szabo order parameter), best-fit value [3]	τlocal, best-fit value [3]
CCCCCCCCCCCCCCCC(=O)N[C@H](C(=O)N[C@H](C(=O)N[C@H](C(=O)N[C@@H](C)C(=O)N[C@@H](C)C(=O)N[C@@H](C)C(=O)N[C@@H](CCC(=O)O)C(=O)N[C@@H](CCC(=O)O)C(=O)N[C@@H](CCC(=O)O)C(=O)NCC(=O)N(CC(=O)N(CC(=O)N(CC(N)=O)Cc1cn(CC(O)CN2CCN(CC(=O)O)CCN(CC(=O)O)CCN(CC(=O)O)CC2)nn1)Cc1cn(CC(O)CN2CCN(CC(=O)O)CCN(CC(=O)O)CCN(CC(=O)O)CC2)nn1)Cc1cn(CC(O)CN2CCN(CC(=O)O)CCN(CC(=O)O)CCN(CC(=O)O)CC2)nn1)C(C)C)C(C)C)C(C)C (some centres unmarked) (Gd complex, metal not drawn) [PA3]	54±9%	–	–	–	–	–	–	–	–	–	–	–	–	–
C16-VVVAAAEEE-(peptoid linker)-(Gd(HP-DO3A) macrocycle) (C16-VVVAAAEEE-{peptoid linker-Gd(HP-DO3A)}; reading uncertain; also: Gd(III) chelated in HP-DO3A macrocycle) [PA2, V3A3E3 peptide amphiphile, Gd(III) contrast agent conjugated at the C-terminus without a glycine linker]	–	21.7 ± 0.1 mM⁻¹ s⁻¹	45 ± 2 mM⁻¹ s⁻¹	16.9 ± 0.2 mM⁻¹ s⁻¹	28.6 ± 0.6 mM⁻¹ s⁻¹	17.3 ± 0.8 mM⁻¹ s⁻¹	39 ± 2 mM⁻¹ s⁻¹	16.7 ± 0.2 mM⁻¹ s⁻¹	32.2 ± 0.5 mM⁻¹ s⁻¹	540 ns	640 ns	410 ns	0.3	4 ns
